Results as given in paper PMC2234237 (The Journal of Cell Biology, 2008).

T1: Pih1/Nop17, full length, untagged, recombinant (monomeric species) (S. cerevisiae, UniProt P38768 1-344)
T1 sequence: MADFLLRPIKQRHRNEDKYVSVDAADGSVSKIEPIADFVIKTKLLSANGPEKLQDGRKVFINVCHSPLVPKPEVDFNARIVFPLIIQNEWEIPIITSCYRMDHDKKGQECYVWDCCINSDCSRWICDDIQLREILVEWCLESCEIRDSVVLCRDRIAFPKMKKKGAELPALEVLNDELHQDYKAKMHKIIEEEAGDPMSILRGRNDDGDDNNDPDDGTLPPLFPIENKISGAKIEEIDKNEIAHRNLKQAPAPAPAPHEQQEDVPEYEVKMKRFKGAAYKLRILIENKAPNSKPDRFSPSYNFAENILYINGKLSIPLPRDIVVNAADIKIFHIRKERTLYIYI


Columns and labels:
Rvb2, recombinant = Rvb2, recombinant (S. cerevisiae, UniProt Q12464 1-471); test: SEC
Rvb2, recombinant, sequence (Q12464 whole entry, the tested form may be a part): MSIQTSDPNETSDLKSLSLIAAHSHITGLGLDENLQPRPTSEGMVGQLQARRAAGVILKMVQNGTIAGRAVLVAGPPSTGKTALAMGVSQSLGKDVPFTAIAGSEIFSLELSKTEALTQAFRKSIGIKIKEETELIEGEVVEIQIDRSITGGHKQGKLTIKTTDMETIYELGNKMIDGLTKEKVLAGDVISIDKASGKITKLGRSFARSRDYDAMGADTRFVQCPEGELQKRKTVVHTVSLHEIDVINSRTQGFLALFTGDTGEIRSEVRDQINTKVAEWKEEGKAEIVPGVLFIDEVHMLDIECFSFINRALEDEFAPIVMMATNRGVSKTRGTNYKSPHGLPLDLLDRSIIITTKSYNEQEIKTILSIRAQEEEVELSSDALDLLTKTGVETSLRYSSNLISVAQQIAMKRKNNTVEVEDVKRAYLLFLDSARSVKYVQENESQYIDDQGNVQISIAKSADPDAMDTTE

[1] = biological target: Hsp82-MC (residues 260-709) (S. cerevisiae, UniProt P02829 260-709); test: pull-down
Hsp82-MC (residues 260-709), sequence (P02829 260-709): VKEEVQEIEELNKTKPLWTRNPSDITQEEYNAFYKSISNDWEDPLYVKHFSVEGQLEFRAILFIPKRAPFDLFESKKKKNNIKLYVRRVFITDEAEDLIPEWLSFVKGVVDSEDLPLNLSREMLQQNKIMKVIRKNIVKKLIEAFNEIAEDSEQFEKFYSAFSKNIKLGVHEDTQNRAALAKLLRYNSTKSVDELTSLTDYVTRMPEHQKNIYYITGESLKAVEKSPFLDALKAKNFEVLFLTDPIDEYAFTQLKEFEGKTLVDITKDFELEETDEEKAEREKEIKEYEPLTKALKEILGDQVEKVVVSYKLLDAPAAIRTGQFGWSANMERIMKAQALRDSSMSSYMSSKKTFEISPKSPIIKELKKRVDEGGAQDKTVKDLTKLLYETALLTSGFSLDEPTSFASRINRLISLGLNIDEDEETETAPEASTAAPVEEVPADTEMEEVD

[2] = biological target: T1, Pih1/Nop17, full length, untagged, …; test: pull-down

binding result (Rvb2, recombinant) | binding result [1] | binding result [2] | Binder
binds |  |  | Rvb1, recombinant (natural protein) MVAISEVKENPGVNSSNSGAVTRTAAHTHIKGLGLDESGVAKRVEGGFVGQIEAREACGVIVDLIKAKKMSGRAILLAGGPSTGKTALALAISQELGPKVPFCPLVGSELYSVEVKKTETLMENFRRAIGLRIKETKEVYEGEVTELTPEDAENPLGGYGKTISHVIVGLKSAKGTKTLRLDPTIYESIQREKVSIGDVIYIEANTGAVKRVGRSDAYATEFDLETEEYVPLPKGEVHKKKEIVQDVTLHDLDVANARPQGGQDVISMMGQLLKPKKTEITEKLRQEVNKVVAKYIDQGVAELIPGVLFIDEVNMLDIEIFTYLNKALESNIAPVVVLASNRGMTTVRGTEDVISPHGVPPDLIDRLLIVRTLPYDKDEIRTIIERRATVERLQVESSALDLLATMGTETSLRYALQLLAPCGILAQTSNRKEIVVNDVNEAKLLFLDAKRSTKILETSANYL
 | binds | binds | Tah1, full length, recombinant (natural protein) MSQFEKQKEQGNSLFKQGLYREAVHCYDQLITAQPQNPVGYSNKAMALIKLGEYTQAIQMCQQGLRYTSTAEHVAIRSKLQYRLELAQGAVGSVQIPVVEVDELPEGYDRS
 | binds |  | Sti1 TPR2a domain (residues 260-386) (domain or fragment) IEADKEKAEGNKFYKARQFDEAIEHYNKAWELHKDITYLNNRAAAEYEKGEYETAISTLNDAVEQGREMRADYKVISKSFARIGNAYHKLGDLKKTIEYYQKSLTEHRTADILTKLRNAEKELKKAE
